{"source": "the supplement of paper PMC9112550", "about": "“Optimization of the antimicrobial peptide Bac7 by deep mutational scanning” (BMC Biology, 2022);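 further: peptides expressed intracellularly from a pBAD plasmid library in pooled LB shake-flask culture, induced with 0.3% L-arabinose, DNA abundance read by NGS, three biological replicates, DESeq2 with apeglm shrinkage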"}
{"system": "Escherichia coli TOP10", "test": "shrunken log2 fold change of peptide-encoding DNA abundance (4.5 h post-induction vs induction); higher = less antimicrobial activity (less host growth inhibition)", "conditions": "time post-induction: 4.5 h; library: site-saturation at positions 5, 18, 19, 20"}
{"sequence": "RRIRWRPPRLPRPRPRPYRWPRP", "shrunken log2 fold change": -0.0731}
{"sequence": "RRIRVRPPRLPRPRPRPTITPRP", "shrunken log2 fold change": -0.178}
{"sequence": "RRIRLRPPRLPRPRPRPPYSPRP", "shrunken log2 fold change": -0.125}
{"sequence": "RRIRVRPPRLPRPRPRPSSQPRP", "shrunken log2 fold change": -0.0546}
{"sequence": "RRIRPRPPRLPRPRPRPHLDPRP", "shrunken log2 fold change": 0.158}
{"sequence": "RRIRERPPRLPRPRPRPPGMPRP", "shrunken log2 fold change": 0.0408}
{"sequence": "RRIRYRPPRLPRPRPRPTATPRP", "shrunken log2 fold change": -0.038}
{"sequence": "RRIRLRPPRLPRPRPRPRTKPRP", "shrunken log2 fold change": 0.567}
{"sequence": "RRIRIRPPRLPRPRPRPVMWPRP", "shrunken log2 fold change": -0.0605}
{"sequence": "RRIRIRPPRLPRPRPRPCYEPRP", "shrunken log2 fold change": -0.303}
{"sequence": "RRIRARPPRLPRPRPRPKMHPRP", "shrunken log2 fold change": 0.364}
{"sequence": "RRIRYRPPRLPRPRPRPYQDPRP", "shrunken log2 fold change": -1.1}
{"sequence": "RRIRQRPPRLPRPRPRPYDMPRP", "shrunken log2 fold change": -0.626}
{"sequence": "RRIRSRPPRLPRPRPRPHAHPRP", "shrunken log2 fold change": -0.32}
{"sequence": "RRIRKRPPRLPRPRPRPNSPPRP", "shrunken log2 fold change": -0.027}
{"sequence": "RRIRYRPPRLPRPRPRPFMGPRP", "shrunken log2 fold change": -0.316}
{"sequence": "RRIRNRPPRLPRPRPRPTKNPRP", "shrunken log2 fold change": -0.0348}
{"sequence": "RRIRYRPPRLPRPRPRPDSIPRP", "shrunken log2 fold change": -0.0267}
{"sequence": "RRIRYRPPRLPRPRPRPMANPRP", "shrunken log2 fold change": -0.223}
{"sequence": "RRIRKRPPRLPRPRPRPICHPRP", "shrunken log2 fold change": 0.132}
{"sequence": "RRIRWRPPRLPRPRPRPGNMPRP", "shrunken log2 fold change": -0.11}
{"sequence": "RRIRLRPPRLPRPRPRPKRWPRP", "shrunken log2 fold change": 0.356}
{"sequence": "RRIRPRPPRLPRPRPRPGGWPRP", "shrunken log2 fold change": 0.724}
{"sequence": "RRIRARPPRLPRPRPRPLWLPRP", "shrunken log2 fold change": 0.302}
{"sequence": "RRIRHRPPRLPRPRPRPEWRPRP", "shrunken log2 fold change": -0.0322}
{"sequence": "RRIRGRPPRLPRPRPRPRLWPRP", "shrunken log2 fold change": 1.36}
{"sequence": "RRIRVRPPRLPRPRPRPWQIPRP", "shrunken log2 fold change": 0.00686}
{"sequence": "RRIRARPPRLPRPRPRPLVDPRP", "shrunken log2 fold change": 0.498}
{"sequence": "RRIRKRPPRLPRPRPRPHETPRP", "shrunken log2 fold change": -0.0327}
{"sequence": "RRIRLRPPRLPRPRPRPLAMPRP", "shrunken log2 fold change": -0.218}
{"sequence": "RRIRARPPRLPRPRPRPGIGPRP", "shrunken log2 fold change": 0.524}
{"sequence": "RRIRERPPRLPRPRPRPCGFPRP", "shrunken log2 fold change": -0.303}
{"sequence": "RRIRSRPPRLPRPRPRPLIVPRP", "shrunken log2 fold change": -0.206}
{"sequence": "RRIRFRPPRLPRPRPRPQHSPRP", "shrunken log2 fold change": -0.347}
{"sequence": "RRIRDRPPRLPRPRPRPKFMPRP", "shrunken log2 fold change": -0.191}
{"sequence": "RRIRLRPPRLPRPRPRPITSPRP", "shrunken log2 fold change": 0.0662}
{"sequence": "RRIRGRPPRLPRPRPRPLKCPRP", "shrunken log2 fold change": 0.303}
{"sequence": "RRIRMRPPRLPRPRPRPQIVPRP", "shrunken log2 fold change": -0.163}
{"sequence": "RRIRVRPPRLPRPRPRPYSNPRP", "shrunken log2 fold change": -0.676}
{"sequence": "RRIRNRPPRLPRPRPRPSKSPRP", "shrunken log2 fold change": -0.227}
{"sequence": "RRIRHRPPRLPRPRPRPQAQPRP", "shrunken log2 fold change": -0.208}
{"sequence": "RRIRIRPPRLPRPRPRPTTPPRP", "shrunken log2 fold change": 0.552}
{"sequence": "RRIRKRPPRLPRPRPRPKFRPRP", "shrunken log2 fold change": 0.00803}
{"sequence": "RRIRVRPPRLPRPRPRPDIIPRP", "shrunken log2 fold change": -0.35}
{"sequence": "RRIRGRPPRLPRPRPRPIFQPRP", "shrunken log2 fold change": 0.407}
{"sequence": "RRIRHRPPRLPRPRPRPKRVPRP", "shrunken log2 fold change": -0.0983}
{"sequence": "RRIRYRPPRLPRPRPRPVDGPRP", "shrunken log2 fold change": -0.0183}
{"sequence": "RRIRSRPPRLPRPRPRPYKWPRP", "shrunken log2 fold change": -0.18}
{"sequence": "RRIRKRPPRLPRPRPRPAPLPRP", "shrunken log2 fold change": 0.929}
{"sequence": "RRIRIRPPRLPRPRPRPIDFPRP", "shrunken log2 fold change": -0.0103}
{"sequence": "RRIRKRPPRLPRPRPRPRYYPRP", "shrunken log2 fold change": -0.248}
{"sequence": "RRIRFRPPRLPRPRPRPVHCPRP", "shrunken log2 fold change": -0.0193}
{"sequence": "RRIRTRPPRLPRPRPRPSLMPRP", "shrunken log2 fold change": 0.0356}
{"sequence": "RRIRLRPPRLPRPRPRPVWPPRP", "shrunken log2 fold change": 0.422}
{"sequence": "RRIRRRPPRLPRPRPRPHLPPRP", "shrunken log2 fold change": 0.141}
{"sequence": "RRIRPRPPRLPRPRPRPPFRPRP", "shrunken log2 fold change": 0.529}
{"sequence": "RRIRQRPPRLPRPRPRPSAEPRP", "shrunken log2 fold change": 0.117}
{"sequence": "RRIRYRPPRLPRPRPRPCYFPRP", "shrunken log2 fold change": -1.04}
{"sequence": "RRIRHRPPRLPRPRPRPHTEPRP", "shrunken log2 fold change": -0.406}
{"sequence": "RRIRNRPPRLPRPRPRPPKSPRP", "shrunken log2 fold change": 0.338}
{"sequence": "RRIRCRPPRLPRPRPRPQDKPRP", "shrunken log2 fold change": -0.579}
{"sequence": "RRIRERPPRLPRPRPRPQGSPRP", "shrunken log2 fold change": -0.107}
{"sequence": "RRIRKRPPRLPRPRPRPQMYPRP", "shrunken log2 fold change": -0.192}
{"sequence": "RRIRKRPPRLPRPRPRPWLSPRP", "shrunken log2 fold change": 0.0773}
{"sequence": "RRIRDRPPRLPRPRPRPSIKPRP", "shrunken log2 fold change": -0.491}
{"sequence": "RRIRTRPPRLPRPRPRPCGPPRP", "shrunken log2 fold change": -0.0329}
{"sequence": "RRIRVRPPRLPRPRPRPHETPRP", "shrunken log2 fold change": -0.0244}
{"sequence": "RRIRKRPPRLPRPRPRPLRGPRP", "shrunken log2 fold change": 0.873}
{"sequence": "RRIRDRPPRLPRPRPRPSEQPRP", "shrunken log2 fold change": 0.0598}
{"sequence": "RRIRKRPPRLPRPRPRPELVPRP", "shrunken log2 fold change": 0.133}
{"sequence": "RRIRARPPRLPRPRPRPAGLPRP", "shrunken log2 fold change": 0.387}
{"sequence": "RRIRSRPPRLPRPRPRPFGRPRP", "shrunken log2 fold change": -0.0701}
{"sequence": "RRIRKRPPRLPRPRPRPINTPRP", "shrunken log2 fold change": -0.0237}
{"sequence": "RRIRCRPPRLPRPRPRPRYVPRP", "shrunken log2 fold change": -0.22}
{"sequence": "RRIRDRPPRLPRPRPRPLIWPRP", "shrunken log2 fold change": 0.176}
{"sequence": "RRIRARPPRLPRPRPRPQLTPRP", "shrunken log2 fold change": 0.179}
{"sequence": "RRIRVRPPRLPRPRPRPWILPRP", "shrunken log2 fold change": 0.000714}
{"sequence": "RRIRARPPRLPRPRPRPDHAPRP", "shrunken log2 fold change": -0.0131}
{"sequence": "RRIRRRPPRLPRPRPRPKVLPRP", "shrunken log2 fold change": 0.378}
{"sequence": "RRIRRRPPRLPRPRPRPRFDPRP", "shrunken log2 fold change": 0.121}
{"sequence": "RRIRPRPPRLPRPRPRPSELPRP", "shrunken log2 fold change": 0.0666}
{"sequence": "RRIRARPPRLPRPRPRPLFCPRP", "shrunken log2 fold change": 0.00332}
{"sequence": "RRIRFRPPRLPRPRPRPLKTPRP", "shrunken log2 fold change": -0.112}
{"sequence": "RRIRWRPPRLPRPRPRPRAGPRP", "shrunken log2 fold change": 0.673}
{"sequence": "RRIRVRPPRLPRPRPRPCNDPRP", "shrunken log2 fold change": -0.437}
{"sequence": "RRIRTRPPRLPRPRPRPLMMPRP", "shrunken log2 fold change": -0.314}
{"sequence": "RRIRNRPPRLPRPRPRPAMIPRP", "shrunken log2 fold change": -0.254}
{"sequence": "RRIRIRPPRLPRPRPRPEEHPRP", "shrunken log2 fold change": 0.023}
{"sequence": "RRIRYRPPRLPRPRPRPLWVPRP", "shrunken log2 fold change": -0.0829}
{"sequence": "RRIRARPPRLPRPRPRPNQFPRP", "shrunken log2 fold change": -0.014}
{"sequence": "RRIRDRPPRLPRPRPRPQSIPRP", "shrunken log2 fold change": 0.00839}
{"sequence": "RRIRSRPPRLPRPRPRPMHIPRP", "shrunken log2 fold change": -0.283}
{"sequence": "RRIRVRPPRLPRPRPRPEENPRP", "shrunken log2 fold change": 0.265}
{"sequence": "RRIRYRPPRLPRPRPRPCPFPRP", "shrunken log2 fold change": -0.0574}
{"sequence": "RRIRVRPPRLPRPRPRPGVSPRP", "shrunken log2 fold change": -0.141}
{"sequence": "RRIRWRPPRLPRPRPRPWILPRP", "shrunken log2 fold change": -0.19}
{"sequence": "RRIRFRPPRLPRPRPRPYPTPRP", "shrunken log2 fold change": -0.324}
{"sequence": "RRIRLRPPRLPRPRPRPYWDPRP", "shrunken log2 fold change": -0.195}
{"sequence": "RRIRDRPPRLPRPRPRPMCTPRP", "shrunken log2 fold change": -0.0135}
{"sequence": "RRIRSRPPRLPRPRPRPESSPRP", "shrunken log2 fold change": 0.00287}
{"sequence": "RRIRVRPPRLPRPRPRPNYDPRP", "shrunken log2 fold change": 0.273}
{"sequence": "RRIRARPPRLPRPRPRPLHVPRP", "shrunken log2 fold change": 0.0439}
{"sequence": "RRIRDRPPRLPRPRPRPRNRPRP", "shrunken log2 fold change": 0.0378}
{"sequence": "RRIRQRPPRLPRPRPRPVKVPRP", "shrunken log2 fold change": -0.00987}
{"sequence": "RRIRDRPPRLPRPRPRPVAHPRP", "shrunken log2 fold change": -0.0445}
{"sequence": "RRIRQRPPRLPRPRPRPAFQPRP", "shrunken log2 fold change": 0.0837}
{"sequence": "RRIRGRPPRLPRPRPRPRKCPRP", "shrunken log2 fold change": 0.666}
